The record followed here is article PMC10274944.

pKd: −log10 of the molar value.

The target of this test is GST-tagged MERS-CoV papain-like protease (PLpro) (MERS-CoV) (UniProt K9N7C7). The test is described as follows: BLI.
A word on the pKd: it is the Kd on a negative log10 scale, so that one unit is a factor of ten. In turn, “ubiquitin variant A46F-K48E-E64Y (UbV3) (from UniProt P0CG48 1-76) (designed binder)” gave a pKd of 8.56.

On to “ubiquitin variant A46F-K48E (UbV2) (from UniProt P0CG48 1-76) (designed binder)”, for which the pKd is 6.66.

Take “ubiquitin variant A46F-K48E-E64Y-R74N-G75S (UbV5) (from UniProt P0CG48 1-76) (designed binder)”: the negative-log Kd (pKd) was 8.83.

In turn, “ubiquitin variant A46F-K48E-G75R (from UniProt P0CG48 1-76) (designed binder)” showed a negative logarithm of the Kd (pKd) of 4.94.
